Source: patent US20110165066A1

Assays:
[1] = molecular target: human IL-13 variant (R130Q) (human) (UniProt P35225); assay: SPR (Biacore)
[2] = molecular target: human IL-13 wild type (human) (UniProt P35225); assay: SPR (Biacore)
[3] = molecular target: human IL-13 wild type (human) (UniProt P35225); assay: ELISA-based receptor binding assay, IL-13 binding to IL-13Rα2/Fc
[4] = molecular target: human IL-13 wild type (human) (UniProt P35225); assay: ELISA-based receptor binding assay, blocking biotin-IL-13 binding to IL-13Rα2/Fc
[5] = molecular target: human IL-13 wild type (human) (UniProt P35225); assay: cell surface-based receptor binding assay, IL-13 binding to IL-13Rα2 on COS cells
[6] = molecular target: human IL-13 wild type (human) (UniProt P35225); assay: cell surface-based receptor binding assay, blocking 125I-IL-13 binding to IL-13Rα2-transfected COS cells

Chain of human IL-13 wild type (human) (P35225 other isoform, or with tags, fused parts or gaps limits assumed): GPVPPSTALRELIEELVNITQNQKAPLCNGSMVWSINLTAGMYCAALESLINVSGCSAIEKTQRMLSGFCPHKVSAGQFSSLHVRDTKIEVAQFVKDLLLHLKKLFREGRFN
Chain of human IL-13 variant (R130Q) (human) (P35225 35-146 limits assumed, stated change not applied): as the sequence (P35225 other isoform, or with tags, fused parts or gaps limits assumed) above, with R110Q counted along it

Kd [1]: 0.79 nM
Kd [2]: 1.14 nM
% inhibition at 100 nM [3]: 60%
IC50 [4]: 19 nM
% inhibition at 100 nM [5]: 70%
IC50 [6]: 17.6 nM
B1: MJ2-7 (antibody, from another filing, V domains shown)
VH: EVQLQQSGAELVKPGASVKLSCTGSGFNIKDTYIHWVKQRPEQGLEWIGRIDPANDNIKYDPKFQGKATITADTSSNTAYLQLNSLTSEDTAVYYCARSEENWYDFFDYWGQGTTLTVSS
VL: DVLMTQTPLSLPVSLGDQASISCRSSQSIVHSNGNTYLEWYLQKPGQSPKLLIYKVSNRFSGVPDRFSGSGSGTDFTLKISRVEAEDLGVYYCFQGSHIPYTFGGGTKLEIK
